Source: the nanobody polyreactivity screen of Harvey et al. (2022)

Assay: yeast display, Sf9 membrane polyspecificity reagent, FACS + sequencing; frameworks hold sequencing errors
Outline: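 Nanobodies from a synthetic yeast display library (Saccharomyces cerevisiae BJ5465), induced 36–48 hours with galactose, were stained 1 hour at 4 °C with 10% biotinylated, detergent-solubilized Sf9 membrane reagent, enriched on streptavidin microbeads, then FACS-sorted. Anti-HA (expression) and streptavidin (reagent binding) fluorescence set low and high (top ~1%) gates. Polyreactivity labels come from the gate of origin. Genes were colony-PCR amplified, MiSeq 2 × 250 sequenced and filtered by CDR length.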

Sequence | polyreactivity (PSR sort gate)
QVQLVESGGGLVQAGGSLRLSCAASGFTFSSYAMGWYRQAPGKERELVAAISTRGGSTYYADSVKGRFTISRDNAKNTVYLQMNSLKPEDTAVYYCATGGRGGRRYEYWGQGTQVTVSS | low polyreactivity
QVHLVESGGGLVQAGGSLRLSCAASGRTFPGYAMGWYRQAPGKERELVATITGNAGSTYYADSVKGRFTISRDNAKNTVYLQMNSLKPEDTAVYYCAAGRRRPYVRAYRGTDYWGQGTQVTVSS | low polyreactivity
QVQLVESGGGLVQAGGSLRLSCAASGNTFYSNAMRWYRQAPGKERELVAAISTSGGSTFYADSVKGRFTISRDNAKNTVYLQMNSLKPEDTAVYYCAARSLRGHRYRYDYWGQGTQVTVSS | high polyreactivity
QVQLVESGGGLVQAGGSLRLSCAASGIIFTYYAMGWYRQAPGKERELVAGISSSGGITYADSVKGRFTISRDNAKNTVYLQMNSLKPEDTAVYYCAAESYGRSETEDDYWGQGTQVTVSS | low polyreactivity
QVQLVESGGGLVQAGGSLRLSCAASGSIFRTYTMGWYRQAPGKERELVAAITRSGGRTFYADSVKGRFTISRDTAKNTVYLQMHSLKPEDTAVYYCAAKRTGDYDWGQGTQVTVSS | high polyreactivity
QVQLVESGGGLVQAGGSLRLTCAASGRTLRYNAMGWYRPAPVKERELVAAITSTGSTNYADSVKGRFTISRDNAKLTVYLHMNSLTAEDTAVYYCAKTSRYYWYGYDYWGQGTQVTVSS | high polyreactivity
QVQLVESGGGLVQAGGSLRLSCAASGNTFAVNAMGWYRQAPGKERELVAAISKRGGRTYYADSVKGRFTISRDNAKNTVYLQMNSLKPEDTAVYYCAADLSNSMDYWGQGTQVTVSS | high polyreactivity
QVQLVESGGGLVQAGGSLRLSCAASGRIFYGNAMGWYRQAPGKEREWVAAISSGTSTNYADSVKGRFTISRDNAKNTVFLQMNSLKPEDTAVYYCADGSYSRYLYSLYFDFDYWGQGTQVTVSS | low polyreactivity
QVQLVESGGGLVQAGGSLRLSCAASGRIFDPYAMGWYRQAPGKERELVAAIDWSDGGTYYADSVKGRFTISRDNAKNTVYLQMNSLKPEDTAVYYCAADLLDISYYDGMDYWGQGTQVTVSS | low polyreactivity
QVQLVESGGGLVQAGGSLRLSCAASGITFGRNTMGWYRPAPGKERELVAAIDSGGNTYADSVKGRFTISRDNAKNTVYLQMNSLKPEDTAVYYCAVDGGEFSSYGYWGQGTQVTVSS | low polyreactivity
QVQLVESGGGLVQAGGSLRLSCAASGFTFWKYTMGWYRQAPGKERELVAAITNSGTSTYYADSVKGRFTISRDNAKNTVYLQMNSLKPEDTAVYYCARDNEPDYYSYPYDYWGQGTQVTVSS | low polyreactivity
QVQRVDSGGGLVQAGGSLRLSCDPSGRTHDVNAMGWYRQAPWKERQLVAAISYSGGITYYADSVKGRFTISRDNAKNTVYLQMNSLKPEDTAVYYCAVVGGYPSYTVDYWGQGSQVTVSS | low polyreactivity
QVQLVESGGGLVQAGGSLRLSCAASGRIFNWYAMGWYRQAPGKERELVARISSGDITSYADSVKGRFTISRDNAKNTVYLQMNSLKPEDTAVYYCAARQWFLYDYWGHGTQVTVSS | low polyreactivity
QVQLVESGGGLVQAGGSLRLSCAASGFTFYVNAMGWYRQAPGKERELVAAISSRGGSTYYADSVKGRFTISRDNAKNTVYLQMNSLKPEDTAVYYCATAKSYGEDSWGQGTQVTVSS | high polyreactivity
QVQLVESGGGLVQAGGSLRLSCAASGSIRRYAMGWYRQAPGKERELVAAISGSGVSTYYADSVKGRFTISRDNAKNTVYLQMNSLKPEDTAVYYCAAAAIYFRYDYWGQGTQVTVSS | high polyreactivity
QVQLVESGGGLVQAGGSLRLSCAASGSILGTYAMGWYRQAPGKVRELVAAISSSGRTSYADSVKGRFTISRDNAKNTGYLQMNSLKPEDTAVYYCNASNYIVLINDPYAAPWLYDYWGQGTQVTVSS | low polyreactivity
QVQLVESGGGLVQAGGSLRLTCAASGSIIALYAMGWYRQAPGKERELVATISSCVSTYYADSVKGRFTISRDNAKNTVYLQLNSLKPEDTAVYYCAADKTVRSSNYDYWGQCTQVTVSS | low polyreactivity
